This passage reports reduction in potency (EC50 for STAT4 phosphorylation) relative to WT IL-12-Fc XENP27201 results from US20210355185A1.

The target in this experiment is IL-12 receptors (human) (UniProt P42701). In words: cell-based or functional assay.
Sequence of IL-12 receptors (human) (Q99665 24-862, chain 2 of 2, other chains not shown): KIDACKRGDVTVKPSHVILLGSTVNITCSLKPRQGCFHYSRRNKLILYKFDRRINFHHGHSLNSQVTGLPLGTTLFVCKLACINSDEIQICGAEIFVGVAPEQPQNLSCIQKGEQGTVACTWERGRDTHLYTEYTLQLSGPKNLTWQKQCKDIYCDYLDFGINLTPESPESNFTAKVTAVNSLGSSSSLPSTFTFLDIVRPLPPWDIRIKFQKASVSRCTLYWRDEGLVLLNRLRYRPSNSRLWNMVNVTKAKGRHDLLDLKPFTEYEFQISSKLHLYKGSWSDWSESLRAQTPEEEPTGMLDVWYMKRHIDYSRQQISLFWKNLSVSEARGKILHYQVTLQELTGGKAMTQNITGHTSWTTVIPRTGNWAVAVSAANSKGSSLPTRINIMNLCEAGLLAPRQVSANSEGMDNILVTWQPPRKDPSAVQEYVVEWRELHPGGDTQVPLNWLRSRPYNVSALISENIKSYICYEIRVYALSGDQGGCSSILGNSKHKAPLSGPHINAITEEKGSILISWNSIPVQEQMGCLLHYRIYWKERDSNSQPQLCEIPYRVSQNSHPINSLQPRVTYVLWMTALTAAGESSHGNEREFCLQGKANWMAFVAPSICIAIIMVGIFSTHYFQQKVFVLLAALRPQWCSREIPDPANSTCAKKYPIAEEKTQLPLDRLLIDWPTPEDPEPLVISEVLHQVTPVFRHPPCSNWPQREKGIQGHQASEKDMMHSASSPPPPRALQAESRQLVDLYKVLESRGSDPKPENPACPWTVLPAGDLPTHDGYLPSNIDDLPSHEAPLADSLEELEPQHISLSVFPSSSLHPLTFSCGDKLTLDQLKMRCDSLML
“IL-12-Fc fusion comprising IL-12p40(E235Q) (from UniProt P29460 23-328; P29459 23-219)” gave a reduction in potency (EC50 for STAT4 phosphorylation) relative to WT IL-12-Fc XENP27201 above 2 fold.

In turn, “IL-12-Fc fusion comprising IL-12p35(D55Q/N151D) (from UniProt P29460 23-328; P29459 23-219)” registered a reduction in potency (EC50 for STAT4 phosphorylation) relative to WT IL-12-Fc XENP27201 of 2 fold. The same measure for “IL-12-Fc fusion comprising IL-12p35(E153Q) (from UniProt P29460 23-328; P29459 23-219)”: above 2 fold.
